Literature values as cited in publication PMC2635555.

Target: Histone H3 (H3K4me0) N-terminal tail (Homo sapiens) (UniProt P68431)

Chain of AIRE PHD1 (O43918 296-343): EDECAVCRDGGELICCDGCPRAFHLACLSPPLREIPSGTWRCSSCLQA

Kd: 5 µM
Substance: AIRE PHD1 (from UniProt O43918)
